Laboratory results: the supplement of paper PMC7877785
± gives the uncertainty stated by the source.

Assay: self-splicing fitness, log relative to wild type (ln ratio); higher = more splicing; Tetrahymena group I intron in knt gene, E. coli kanamycin selection, DiMSum; sequences stand for … in CUCUCU…GGAGGGAAAAGUUAUCAGGCAUGCACCUGGUAGCUAGUCUUUAAACCAAUAGAUUGCAUCGGUUUAAAAGGCAAGACCGUCAAAUUGCGGGAAAGGGGUCAACAGCCGUUCAGUACCAAGUCUCAGGGGAAACUUUGAGAUGGCCUUGCAAAGGGUAUGGUAAUAAGCUGACGGACAUGGUCCUAACCACGCAGCCAAGUCCUAAGUCAACAGAUCUUCUGUUGAUAUGGAUGCAGUUCACAGACUAAAUGUCGGUCGGGGAAGAUGUAUUCUUCUCAUAAGAUAUAGUCGGACCUCUCCUUAAUGGGAGCUAGCGGAUGAAGUGAUGCAACACUGGAGCCGCUGGGAACUAAUUUGUAUGCGAAAGUAUAUUGAUUAGUUUUGGAGUACUCGUGGUCG
How it was run: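 Library with all eight P1ex-region intron nucleotides randomised, intron inside the knt kanamycin-resistance gene on pET-22b(+), in E. coli BL21(DE3). Cells grew overnight at 37°C or 30°C on LB agar with or without 25 μg/mL kanamycin (plus 100 μg/mL carbenicillin, 50 μM IPTG, 0.2% rhamnose), in six replicate transformations. Pooled colonies were amplicon-sequenced on Illumina HiSeq 2500. DiMSum fitness is the error-weighted combination of wild-type-normalised replicate fold changes, kanamycin versus none.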

Row | Sequence | self-splicing fitness (ln) (37 °C) | self-splicing fitness (ln) (30 °C)
1 | CUGGAGCAAUAUUACGACUC | -2.39 ± 0.41 | 
2 | AAUUAGCAAUAUUACGCGGC | -1.32 ± 0.3 | -2.28 ± 0.39
3 | CUGAAGCAAUAUUACGGUGU | -2.95 ± 0.12 | -3.3 ± 0.1
4 | UGUAAGCAAUAUUACGGACG | 0.762 ± 0.14 | -0.142 ± 0.11
5 | GCUUAGCAAUAUUACGGCAG | -2.63 ± 0.34 | -4.61 ± 0.46
6 | AUCCAGCAAUAUUACGUACG | -0.813 ± 0.19 | -1.7 ± 0.11
7 | CGCUAGCAAUAUUACGGCGU | -2.71 ± 0.21 | -4.23 ± 0.42
8 | ACAUAGCAAUAUUACGAUUA | -0.602 ± 0.14 | -0.756 ± 0.1
9 | CGGGAGCAAUAUUACGUGCU | -2.87 ± 0.22 | -3.7 ± 0.21
10 | GACGAGCAAUAUUACGGUCA | -0.552 ± 0.15 | -2.22 ± 0.15
11 | CGCUAGCAAUAUUACGGUCG | -2.03 ± 0.13 | -2.53 ± 0.1
12 | CUUUAGCAAUAUUACGAGAU | -2.57 ± 0.22 | -3.83 ± 0.23
13 | UUCAAGCAAUAUUACGUACC | -1.69 ± 0.2 | 
14 | CCUUAGCAAUAUUACGCCAG | -2.05 ± 0.45 | 
15 | UCUCAGCAAUAUUACGUUGC | -2.73 ± 0.23 | 
16 | GGCAAGCAAUAUUACGAGCA | -0.381 ± 0.14 | -0.434 ± 0.13
17 | AUGCAGCAAUAUUACGUCUG | -0.405 ± 0.16 | -3.64 ± 0.35
18 | AAGUAGCAAUAUUACGCUUG | -0.42 ± 0.1 | -1.6 ± 0.097
19 | UACUAGCAAUAUUACGCUAG | -2.08 ± 0.21 | -3.86 ± 0.25
20 | GAUCAGCAAUAUUACGUAUA | -0.975 ± 0.088 | -0.819 ± 0.091
21 | GUUCAGCAAUAUUACGCGAA | -1.82 ± 0.28 | -2.26 ± 0.27
22 | GUGAAGCAAUAUUACGGAUC | -0.286 ± 0.13 | -1.43 ± 0.086
23 | UGUGAGCAAUAUUACGCUAU | -1.9 ± 0.3 | 
24 | AUAGAGCAAUAUUACGUAAG | -1.34 ± 0.25 | -1.94 ± 0.22
25 | AAGCAGCAAUAUUACGUUGC | -3.24 ± 0.21 | -2.46 ± 0.099

Row | Sequence | self-splicing fitness (ln) (37 °C) | self-splicing fitness (ln) (30 °C)
26 | AGUGAGCAAUAUUACGUGAG | -0.839 ± 0.19 | -3.58 ± 0.31
27 | ACACAGCAAUAUUACGACGG | -0.0997 ± 0.11 | -0.479 ± 0.073
28 | AGUGAGCAAUAUUACGACGG | -0.814 ± 0.22 | -3.25 ± 0.28
29 | CGGCAGCAAUAUUACGGAGG | -0.0971 ± 0.11 | -1.2 ± 0.086
30 | UCUGAGCAAUAUUACGCGCU | -1.59 ± 0.3 | -2.53 ± 0.28
31 | CUAUAGCAAUAUUACGAACC |  | -2.11 ± 0.49
32 | UAACAGCAAUAUUACGCGUU | -3.01 ± 0.13 | -3.66 ± 0.1
33 | CCGUAGCAAUAUUACGAGUG | -0.807 ± 0.083 | -1.07 ± 0.069
34 | UUGUAGCAAUAUUACGAGUG | -0.408 ± 0.12 | -1.69 ± 0.14
35 | GGCUAGCAAUAUUACGAGCA | -0.213 ± 0.12 | -0.589 ± 0.081
36 | AUUCAGCAAUAUUACGGGCC | -1.82 ± 0.34 | -2.57 ± 0.33
37 | CGACAGCAAUAUUACGUCAG | -1.94 ± 0.12 | -2.38 ± 0.094
38 | GACGAGCAAUAUUACGAGUA | -3.26 ± 0.37 | -3.81 ± 0.39
39 | AUUUAGCAAUAUUACGAACU | 0.211 ± 0.14 | 0.198 ± 0.13
40 | CCUUAGCAAUAUUACGCGCG | -3.39 ± 0.42 | -2.71 ± 0.39
41 | ACCAAGCAAUAUUACGUAAG | -1.37 ± 0.098 | -2.18 ± 0.063
42 | GGAUAGCAAUAUUACGAACA | 0.22 ± 0.15 | -1.95 ± 0.19
43 | GUCAAGCAAUAUUACGAACA | -1.24 ± 0.19 | -2.25 ± 0.22
44 | UACCAGCAAUAUUACGAGGU | -3.39 ± 0.23 | -3.36 ± 0.22
45 | ACCUAGCAAUAUUACGAGCU | -0.237 ± 0.09 | -0.918 ± 0.075
46 | GCCCAGCAAUAUUACGGAUA | 0.215 ± 0.089 | -0.88 ± 0.078
47 | CUCGAGCAAUAUUACGAGCU |  | -3.85 ± 0.32
48 | CAUGAGCAAUAUUACGCAUG | -1.18 ± 0.25 | -3.01 ± 0.2
49 | GUUGAGCAAUAUUACGUAUU |  | -3.74 ± 0.47
50 | GCGUAGCAAUAUUACGCGCU | -2.84 ± 0.35 | -3.31 ± 0.2
